No end group written: not given here.

The target in test [1] is T1, recombinant N-terminal Huntingtin fragment recHTT610 (human, UniProt P42858 1-610).
T1 construct: range 1-610; Used as extract of transiently transfected HEK293 cells, captured by anti-V5 antibody on the plate or spiked into human serum; also called recombinant HTT610; recombinant Huntingtin; not shown: two C-terminal V5 tags
The test can be described thus: recHTT610 capture ELISA. As for the experimental part:
Binding of antibodies to N-terminal fragment HTT610 was determined by a standard protein capture ELISA procedure using Maxisorb™ ELISA plates (Thermo; CatNr. 439454), coated with 50 μl of a 1:5000 rabbit anti V5 mAB (Sigma, CatNr. V8137), blocking with blocking buffer (PBS, 1% BSA, 0.1% Tween 20), capturing of recombinant Huntingtin from HEK cell extracts (100 ng/μl total protein) followed by incubation with several dilutions of mouse anti HTT sera (1:100; 1:300 and 1:900) or with mAB2166 as reference (diluted 1:2000; Millipore, Cat Nr. MAB2166) for 1 hour at RT. ELISA incubations, washing and detection procedures were performed according to standard procedures.
(In an ELISA, binding on a coated surface is turned into a signal by an enzyme label.)

In the next test the target is T2, peptide p6773 (human, not fully specified (residue 18)).
T2 peptide: LPQPPPQAQPLLPQPQPC
Nature of the test: peptide ELISA.

In another test the target is T3, peptide p7562 (human, not fully specified (residue 1)).
T3 peptide: CDSSEIVLD
Nature of the test: peptide ELISA.

A further test has as its target T4, peptide p7552 (human, not fully specified (residue 1)).
T4 peptide: CSSEIVLD
Nature of the test: peptide ELISA.

For another test, the target named is T5, peptide p7564 (human, not fully specified (residue 1)).
T5 construct: also called 'cleaved' peptide
T5 peptide: CPSDSSEIVLD
The test can be described thus: peptide ELISA.

T1 sequence (P42858 1-610): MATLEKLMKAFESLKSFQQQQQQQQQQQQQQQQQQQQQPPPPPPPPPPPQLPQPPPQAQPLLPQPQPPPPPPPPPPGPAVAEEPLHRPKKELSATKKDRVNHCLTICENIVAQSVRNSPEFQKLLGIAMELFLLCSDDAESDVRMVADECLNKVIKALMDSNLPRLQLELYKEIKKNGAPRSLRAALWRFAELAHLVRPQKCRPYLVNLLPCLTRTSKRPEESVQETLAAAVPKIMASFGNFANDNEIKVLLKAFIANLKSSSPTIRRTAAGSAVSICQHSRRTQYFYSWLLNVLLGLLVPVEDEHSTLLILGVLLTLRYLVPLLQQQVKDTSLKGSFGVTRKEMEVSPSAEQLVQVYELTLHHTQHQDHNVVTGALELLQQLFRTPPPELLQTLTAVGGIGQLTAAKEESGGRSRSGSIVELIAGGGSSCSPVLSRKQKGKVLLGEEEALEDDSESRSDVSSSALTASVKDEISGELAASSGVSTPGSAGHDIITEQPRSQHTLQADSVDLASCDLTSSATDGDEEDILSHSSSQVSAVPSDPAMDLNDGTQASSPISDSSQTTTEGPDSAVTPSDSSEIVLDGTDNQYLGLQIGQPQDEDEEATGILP

B1: monoclonal antibody PRR13 (antibody, V domains shown)
VH: EVQLQQSAPELVKPGASVKMSCKASGYSFTDFYMKWVKQSHGKGLEWIGDIDPKNGDTFYNQKFKGRATLTVDKSSSTAYMQLNSLTTEDSAVYYCATYYGYTMDYWGQGTSVTVSS
VL: QIVLTQSPAIMSASLGERVTMTCTASSSVTSSYLHWYQQKPGSSPKLWIYSTSNLASGVPARFSGSGSGTSYSLTISSMEAEDAATYYCHQYRRPPRTFGGGTKLEIKR
notes: Mouse IgG2a from hybridoma, immunogen p6773; also called mAB PRR13; PPR13
For B1, the “signal to noise ratio (reHTT610-specific signal: HEK ctrl extracts)” value in test [1] is at least 4. Moreover, in the test with peptide p6773, the binding result is on record as “binds”.

B2: monoclonal antibody M1D1 (antibody, V domains shown)
VH: EVQLVESGGGLVQPKGSLKLSCAASGFTFNTYAMNWVRQAPGKGLEWVARIRSKSNNYATYYADSVKDRFTISRDDSQSMLYLQMNNLKTEDTAMYYCVRHGEYGNPWFAYWGQGTLVTVSA
VL: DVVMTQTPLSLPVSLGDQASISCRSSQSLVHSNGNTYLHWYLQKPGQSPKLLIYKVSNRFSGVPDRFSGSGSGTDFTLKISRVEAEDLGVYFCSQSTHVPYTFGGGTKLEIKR
notes: Typed as mouse IgM; hybridoma, immunogen p7564; also called mAB M1D1
For B2, the binding result with peptide p7562, in the test with peptide p7552 and with peptide p7564 was “binds” throughout.

The values are drawn from patent US20220073650A1 (AFFIRIS, published 2022).
